US20220119488A1, “BICYCLIC PEPTIDE LIGANDS SPECIFIC FOR INTEGRIN ALPHA-V-BETA-3” (priority 2019, published 2022)
Each block holds one binder with its values, some of them ahead of it. Numbered stars: 1 amine (or outer) side, 2 acyl side, 3 side chain; on linkers, the order of the positions; unused ones are H or OH. Bridge positions count the residues as written; N and C are the ends. Square brackets hold non-standard residues; d marks the D form. Ends that are not written are not given here. TBMB = c1c(C[*:1])cc(C[*:3])cc1C[*:2]; Fl = fluorescein; Sar = CNCC(=O)O

Key:
human integrin αvβ3 [1] = target: T1, human integrin αvβ3 (human, UniProt P06756 31-992; P05106 27-718, limits assumed); test: human FP direct binding; n=2
T1 sequence (P06756 31-992 limits assumed, chain 1 of 2): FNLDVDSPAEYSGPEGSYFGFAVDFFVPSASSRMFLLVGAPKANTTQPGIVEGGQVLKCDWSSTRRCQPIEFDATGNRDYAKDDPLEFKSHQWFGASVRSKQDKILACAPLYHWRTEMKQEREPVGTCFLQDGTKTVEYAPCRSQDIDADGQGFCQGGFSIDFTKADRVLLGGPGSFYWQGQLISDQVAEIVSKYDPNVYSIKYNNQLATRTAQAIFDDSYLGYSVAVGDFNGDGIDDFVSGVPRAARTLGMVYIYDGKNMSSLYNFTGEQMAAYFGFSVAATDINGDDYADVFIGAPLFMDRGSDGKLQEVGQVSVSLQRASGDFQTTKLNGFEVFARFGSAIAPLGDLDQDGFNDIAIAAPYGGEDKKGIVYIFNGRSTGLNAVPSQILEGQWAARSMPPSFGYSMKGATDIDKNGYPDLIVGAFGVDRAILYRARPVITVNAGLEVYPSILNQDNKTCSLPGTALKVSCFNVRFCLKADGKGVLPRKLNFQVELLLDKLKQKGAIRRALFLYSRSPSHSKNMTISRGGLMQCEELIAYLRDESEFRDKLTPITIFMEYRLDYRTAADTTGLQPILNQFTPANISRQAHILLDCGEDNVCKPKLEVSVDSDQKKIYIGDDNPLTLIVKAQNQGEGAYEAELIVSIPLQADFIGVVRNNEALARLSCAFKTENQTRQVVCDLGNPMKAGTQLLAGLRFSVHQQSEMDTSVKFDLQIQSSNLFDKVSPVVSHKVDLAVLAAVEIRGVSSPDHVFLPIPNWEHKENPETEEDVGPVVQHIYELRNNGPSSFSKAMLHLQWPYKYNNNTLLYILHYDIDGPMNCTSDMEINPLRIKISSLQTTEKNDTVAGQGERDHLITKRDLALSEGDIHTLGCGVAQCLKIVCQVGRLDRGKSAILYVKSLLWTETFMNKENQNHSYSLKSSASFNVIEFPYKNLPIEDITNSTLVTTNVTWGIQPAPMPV
T1 sequence (P05106 27-718 limits assumed, chain 2 of 2): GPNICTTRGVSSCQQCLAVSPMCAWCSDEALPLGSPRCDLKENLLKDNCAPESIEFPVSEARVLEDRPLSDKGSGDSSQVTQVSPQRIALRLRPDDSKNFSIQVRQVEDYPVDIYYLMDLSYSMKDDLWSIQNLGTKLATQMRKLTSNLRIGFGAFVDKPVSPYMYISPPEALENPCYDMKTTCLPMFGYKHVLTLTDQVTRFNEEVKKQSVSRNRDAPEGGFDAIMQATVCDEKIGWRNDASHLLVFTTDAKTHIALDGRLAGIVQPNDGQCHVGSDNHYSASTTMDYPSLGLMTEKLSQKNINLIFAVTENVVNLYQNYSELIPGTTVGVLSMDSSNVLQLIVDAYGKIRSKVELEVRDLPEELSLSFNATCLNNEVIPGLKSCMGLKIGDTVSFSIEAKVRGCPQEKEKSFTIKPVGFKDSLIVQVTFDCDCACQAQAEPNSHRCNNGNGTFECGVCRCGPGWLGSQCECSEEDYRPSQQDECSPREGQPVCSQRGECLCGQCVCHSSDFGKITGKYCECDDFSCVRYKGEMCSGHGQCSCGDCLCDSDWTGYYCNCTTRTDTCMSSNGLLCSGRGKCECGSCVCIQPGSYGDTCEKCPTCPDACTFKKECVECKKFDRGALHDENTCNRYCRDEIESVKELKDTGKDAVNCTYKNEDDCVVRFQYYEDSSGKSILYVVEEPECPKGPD

human integrin αvβ3 [2] = target: T1, human integrin αvβ3; test: human FP direct binding; column 'Mean', n=2
human integrin αvβ3 [3] = target: T1, human integrin αvβ3; test: human FP direct binding; column 'Mean', n=9

Kd (human integrin αvβ3 [1]): 1 nM | Kd (human integrin αvβ3 [2]): 1 nM
B1: BCY2573 (peptide)
peptide: Fl-G[Sar][Sar][Sar][Sar][Sar]ACLDHMECRGDMDC
modifications: linker 8-14-20 via TBMB
notes: Fluorescent bicyclic peptide

Kd (human integrin αvβ3 [3]): 9 nM
B2: BCY2572 (peptide)
peptide: ACLDHMECRGDMDCAXXXXXXK
modifications: Sar6 (six sarcosines); fluorescein (Fl) on the C-terminal K; Ci, Cii and Ciii bound to the TBMB scaffold
notes: Fluorescent bicyclic peptide

Kd (human integrin αvβ3 [1]): 2 nM | Kd (human integrin αvβ3 [2]): 2 nM
B3: BCY2577 (peptide)
peptide: Ac-CILRPNCDLDGRCA[Sar][Sar][Sar][Sar][Sar][Sar]K
modifications: linker 1-7-13 via TBMB; not fully specified (residue 21); also: Fl on the C-terminal K
notes: Fluorescent bicyclic peptide
